The results in this text go back to US20160333422A1 (UNITED STATES OF AMERICA AS REPRESENTED BY THE SECRETARY …, published 2016).

Test [1] addresses NYBR1.1, an isoform of NYBR1, expressed from a plasmid in Cos7 cells, Q9BXX2. Put plainly: cell-based or functional assay.
Test [2] has as its target T1, NY-BR-1 expressed from a transfected vector/plasmid in target cells (Homo sapiens (Human), UniProt Q9BXX3 1-1397).
T1 sequence: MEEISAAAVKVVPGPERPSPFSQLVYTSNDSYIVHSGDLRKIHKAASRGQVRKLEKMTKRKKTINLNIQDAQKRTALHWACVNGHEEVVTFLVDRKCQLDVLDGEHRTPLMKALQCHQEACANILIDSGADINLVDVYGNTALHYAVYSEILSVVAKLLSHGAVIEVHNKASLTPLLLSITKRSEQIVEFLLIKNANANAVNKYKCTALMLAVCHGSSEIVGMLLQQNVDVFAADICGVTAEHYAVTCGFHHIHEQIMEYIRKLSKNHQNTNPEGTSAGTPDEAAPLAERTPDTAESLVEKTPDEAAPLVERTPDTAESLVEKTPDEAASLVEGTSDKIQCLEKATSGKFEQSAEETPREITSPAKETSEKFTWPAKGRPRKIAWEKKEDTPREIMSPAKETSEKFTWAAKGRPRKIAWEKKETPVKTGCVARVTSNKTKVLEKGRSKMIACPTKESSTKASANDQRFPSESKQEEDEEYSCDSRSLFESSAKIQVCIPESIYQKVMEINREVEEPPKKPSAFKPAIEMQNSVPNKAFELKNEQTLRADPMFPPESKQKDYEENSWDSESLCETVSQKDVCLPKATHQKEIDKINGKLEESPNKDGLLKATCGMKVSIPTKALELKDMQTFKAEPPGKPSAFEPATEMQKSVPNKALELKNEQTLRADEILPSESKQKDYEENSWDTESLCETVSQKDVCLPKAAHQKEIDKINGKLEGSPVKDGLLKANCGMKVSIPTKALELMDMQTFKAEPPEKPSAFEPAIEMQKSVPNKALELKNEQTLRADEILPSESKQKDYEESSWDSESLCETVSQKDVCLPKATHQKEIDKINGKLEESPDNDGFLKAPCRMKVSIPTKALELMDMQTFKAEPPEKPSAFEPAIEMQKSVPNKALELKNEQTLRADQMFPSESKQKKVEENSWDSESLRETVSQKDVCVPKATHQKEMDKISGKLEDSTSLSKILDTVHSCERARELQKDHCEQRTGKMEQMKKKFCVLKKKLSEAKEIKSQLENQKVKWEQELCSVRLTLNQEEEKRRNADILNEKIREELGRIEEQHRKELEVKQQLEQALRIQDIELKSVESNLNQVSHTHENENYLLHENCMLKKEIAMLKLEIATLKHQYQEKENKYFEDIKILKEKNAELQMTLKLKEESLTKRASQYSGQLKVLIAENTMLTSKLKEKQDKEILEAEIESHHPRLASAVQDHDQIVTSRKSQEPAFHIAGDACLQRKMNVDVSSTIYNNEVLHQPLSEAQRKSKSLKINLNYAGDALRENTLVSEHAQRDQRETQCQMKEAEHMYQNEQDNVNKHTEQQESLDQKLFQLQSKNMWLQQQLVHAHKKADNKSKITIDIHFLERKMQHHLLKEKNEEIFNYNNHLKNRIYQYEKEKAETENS
Put plainly: cell-based or functional assay.

Chain of NYBR1.1, an isoform of NYBR1, expressed from a plasmid in Cos7 cells, Q9BXX2 (Q9BXX2 whole entry, canonical isoform): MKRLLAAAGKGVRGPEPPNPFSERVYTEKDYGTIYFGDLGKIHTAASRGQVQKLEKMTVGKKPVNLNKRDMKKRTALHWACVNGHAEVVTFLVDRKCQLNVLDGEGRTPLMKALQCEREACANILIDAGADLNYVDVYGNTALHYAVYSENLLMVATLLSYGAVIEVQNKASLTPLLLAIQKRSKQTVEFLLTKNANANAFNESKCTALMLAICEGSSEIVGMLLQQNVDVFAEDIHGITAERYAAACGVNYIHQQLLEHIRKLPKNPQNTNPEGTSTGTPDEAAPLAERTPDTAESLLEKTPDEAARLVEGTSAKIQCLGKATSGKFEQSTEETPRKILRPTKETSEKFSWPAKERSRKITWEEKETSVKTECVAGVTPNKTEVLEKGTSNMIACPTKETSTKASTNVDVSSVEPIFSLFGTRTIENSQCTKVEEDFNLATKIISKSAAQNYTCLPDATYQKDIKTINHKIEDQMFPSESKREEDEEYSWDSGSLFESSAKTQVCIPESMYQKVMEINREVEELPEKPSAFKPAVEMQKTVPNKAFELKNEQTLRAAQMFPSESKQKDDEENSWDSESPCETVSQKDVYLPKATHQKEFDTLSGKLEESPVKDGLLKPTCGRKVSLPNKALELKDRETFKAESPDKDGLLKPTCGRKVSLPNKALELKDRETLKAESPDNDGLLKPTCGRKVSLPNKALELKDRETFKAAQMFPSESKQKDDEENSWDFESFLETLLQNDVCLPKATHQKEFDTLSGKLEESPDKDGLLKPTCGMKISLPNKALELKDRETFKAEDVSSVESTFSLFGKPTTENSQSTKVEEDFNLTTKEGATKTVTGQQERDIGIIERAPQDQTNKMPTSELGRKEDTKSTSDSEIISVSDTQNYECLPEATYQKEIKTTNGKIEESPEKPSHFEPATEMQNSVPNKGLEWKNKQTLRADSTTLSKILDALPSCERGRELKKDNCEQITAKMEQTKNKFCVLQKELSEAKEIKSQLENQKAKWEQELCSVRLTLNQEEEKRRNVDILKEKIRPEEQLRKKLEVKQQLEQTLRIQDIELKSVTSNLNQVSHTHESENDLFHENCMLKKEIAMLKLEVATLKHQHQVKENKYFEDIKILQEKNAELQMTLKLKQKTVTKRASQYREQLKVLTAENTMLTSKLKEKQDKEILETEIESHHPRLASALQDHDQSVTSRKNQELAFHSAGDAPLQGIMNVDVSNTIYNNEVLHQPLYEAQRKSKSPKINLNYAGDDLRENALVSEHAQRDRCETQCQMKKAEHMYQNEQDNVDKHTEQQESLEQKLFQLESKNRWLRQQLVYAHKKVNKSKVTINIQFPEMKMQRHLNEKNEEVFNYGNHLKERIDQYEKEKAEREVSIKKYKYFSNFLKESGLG

B1: second generation anti-NY-BR-1 CAR (NYBR1-28Z) (other)
chain: VQLQESGPDLVKPSQSLSLTCTVTGYSITSGYSWHWIRQFPGNKLEWMGYIHYSGDTDYNPSLKSRFSITRDTSKNQFFLQLNSVTTEDTATYYCATPGGFVYWGQGTLVTVSAGGGGSGGGGSGGGGSDVVMTQTPLTLSVTIGQPASISCKSSQSLLDSDGKTYLHWLLQRPGQSPKRLIFLVSKLDSGVPDRFTGSGSGTDFTLKISRVEAEDLGVYYCWQGTHFPQTFGGGTKLEIKAAAIEVMYPPPYLDNEKSNGTIIHVKGKHLCPSPLFPGPSKPFWVLVVVGGVLACYSLLVTVAFIIFWVRSKRSRLLHSDYMNMTPRRPGPTRKHYQPYAPPRDFAAYRSRVKFSRSADAPAYQQGQNQLYNELNLGRREEYDVLDKRRGRDPEMGGKPRRKNPQEGLYNELQKDKMAEAYSEIGMKGERRRGKGHDGLYQGLSTATKDTYDALHMQALPPR
In test [1], B1 came in with an IFN-γ secretion (pg/ml) upon co-culture with Cos7 cell line transfected with plasmid NYBR 1.1; Patient 5 of 153 pg/mL, an IFN-γ secretion (pg/ml) upon co-culture with Cos7 cell line transfected with plasmid NYBR 1.1; Patient 6 of 51 pg/mL and an IFN-γ secretion (pg/ml) upon co-culture with Cos7 cell line transfected with plasmid NYBR 1.1; Patient 7 of 518 pg/mL. Besides, in test [2], the “IFN-γ secretion (pg/ml) upon co-culture with Cos7 cell line transfected with plasmid NYBR1; Patient 5” value (“IFN-γ secretion … with plasmid NYBR1; Patient 5” for short) worked out at 1110 pg/mL, the “IFN-γ secretion (pg/ml) upon co-culture with Cos7 cell line transfected with plasmid NYBR1; Patient 6” value (“IFN-γ secretion … with plasmid NYBR1; Patient 6” below) was determined as 555 pg/mL and the “IFN-γ secretion (pg/ml) upon co-culture with Cos7 cell line transfected with plasmid NYBR1; Patient 7” value (shortened to “IFN-γ secretion … with plasmid NYBR1; Patient 7”) worked out at 3590 pg/mL.

B2: fourth generation anti-NY-BR-1 CAR (NYBR1 ScFv BBZ) (other)
chain: VQLQESGPDLVKPSQSLSLTCTVTGYSITSGYSWHWIRQFPGNKLEWMGYIHYSGDTDYNPSLKSRFSITRDTSKNQFFLQLNSVTTEDTATYYCATPGGFVYWGQGTLVTVSAGGGGSGGGGSGGGGSDVVMTQTPLTLSVTIGQPASISCKSSQSLLDSDGKTYLHWLLQRPGQSPKRLIFLVSKLDSGVPDRFTGSGSGTDFTLKISRVEAEDLGVYYCWQGTHFPQTFGGGTKLEIKAAAFVPVFLPAKPTTTPAPRPPTPAPTIASQPLSLRPEACRPAAGGAVHTRGLDFACDIYIWAPLAGTCGVLLLSLVITLYCNHRNRFSVVKRGRKKLLYIFKQPFMRPVQTTQEEDGCSCRFPEEEEGGCELRVKFSRSADAPAYQQGQNQLYNELNLGRREEYDVLDKRRGRDPEMGGKPRRKNPQEGLYNELQKDKMAEAYSEIGMKGERRRGKGHDGLYQGLSTATKDTYDALHMQALPPR
In test [1], B2 yielded an IFN-γ secretion (pg/ml) upon co-culture with Cos7 cell line transfected with plasmid NYBR 1.1; Patient 5 of 527 pg/mL, an IFN-γ secretion (pg/ml) upon co-culture with Cos7 cell line transfected with plasmid NYBR 1.1; Patient 6 of 411 pg/mL and an IFN-γ secretion (pg/ml) upon co-culture with Cos7 cell line transfected with plasmid NYBR 1.1; Patient 7 of 1260 pg/mL. In test [2], the “IFN-γ secretion … with plasmid NYBR1; Patient 5” value is 1620 pg/mL, the “IFN-γ secretion … with plasmid NYBR1; Patient 6” value amounted to 929 pg/mL and the “IFN-γ secretion … with plasmid NYBR1; Patient 7” value is 3290 pg/mL.

B3: third generation anti-NY-BR-1 CAR (NYBR1-28BBZ) (other)
chain: VQLQESGPDLVKPSQSLSLTCTVTGYSITSGYSWHWIRQFPGNKLEWMGYIHYSGDTDYNPSLKSRFSITRDTSKNQFFLQLNSVTTEDTATYYCATPGGFVYWGQGTLVTVSAGGGGSGGGGSGGGGSDVVMTQTPLTLSVTIGQPASISCKSSQSLLDSDGKTYLHWLLQRPGQSPKRLIFLVSKLDSGVPDRFTGSGSGTDFTLKISRVEAEDLGVYYCWQGTHFPQTFGGGTKLEIKAAAFVPVFLPAKPTTTPAPRPPTPAPTIASQPLSLRPEACRPAAGGAVHTRGLDFACDIYIWAPLAGTCGVLLLSLVITLYCNHRNRSKRSRLLHSDYMNMTPRRPGPTRKHYQPYAPPRDFAAYRSRFSVVKRGRKKLLYIFKQPFMRPVQTTQEEDGCSCRFPEEEEGGCELRVKFSRSADAPAYQQGQNQLYNELNLGRREEYDVLDKRRGRDPEMGGKPRRKNPQEGLYNELQKDKMAEAYSEIGMKGERRRGKGHDGLYQGLSTATKDTYDALHMQALPPR
Turning to B3, in test [1], the IFN-γ secretion (pg/ml) upon co-culture with Cos7 cell line transfected with plasmid NYBR 1.1; Patient 5 turned out to be 0 pg/mL, the IFN-γ secretion (pg/ml) upon co-culture with Cos7 cell line transfected with plasmid NYBR 1.1; Patient 6 came to 14 pg/mL and the IFN-γ secretion (pg/ml) upon co-culture with Cos7 cell line transfected with plasmid NYBR 1.1; Patient 7 is 26 pg/mL. Also, in test [2], the “IFN-γ secretion … with plasmid NYBR1; Patient 5” value came out at 51 pg/mL, the “IFN-γ secretion … with plasmid NYBR1; Patient 6” value came out at 48 pg/mL and the “IFN-γ secretion … with plasmid NYBR1; Patient 7” value worked out at 71 pg/mL.
